Target: the molecule itself
Assay: AUC; sedimentation at 20 °C and 20,000 rpm; 25 mM Tris-HCl, 100 mM NaCl, pH 7.5; data analysed with SEDFIT

B1: K1 CPS-specific depolymerase K1 lyase of bacteriophage NTUH-K2044-K1-1 (enzyme, UniProt A0A068Q5Q5 1-651, looked up)
chain: MALIRLVAPERVFSDLASMVAYPNFQVQDKITLLGSAGGDFTFTTTASVVDNGTVFAVPGGYLLRKFVGPAYSSWFSNWTGIVTFMSAPNRHLVVDTVLQATSVLNIKSNSTLEFTDTGRILPDAAVARQVLNITGSAPSVFVPLAADAAAGSKVITVAAGALSAVKGTYLYLRSNKLCDGGPNTYGVKISQIRKVVGVSTSGGVTSIRLDKALHYNYYLSDAAEVGIPTMVENVTLVSPYINEFGYDDLNRFFTSGISANFAADLHIQDGVIIGNKRPGASDIEGRSAIKFNNCVDSTVKGTCFYNIGWYGVEVLGCSEDTEVHDIHAMDVRHAISLNWQSTADGDKWGEPIEFLGVNCEAYSTTQAGFDTHDIGKRVKFVRCVSYDSADDGFQARTNGVEYLNCRAYRAAMDGFASNTGVAFPIYRECLAYDNVRSGFNCSYGGGYVYDCEAHGSQNGVRINGGRVKGGRYTRNSSSHIFVTKDVAETAQTSLEIDGVSMRYDGTGRAVYFHGTVGIDPTLVSMSNNDMTGHGLFWALLSGYTVQPTPPRMSRNLLDDTGIRGVATLVAGEATVNARVRGNFGSVANSFKWVSEVKLTRLTFPSSAGALTVTSVAQNQDVPTPNPDLNSFVIRSSNAADVSQVAWEVYL
notes: K1 CPS-specific depolymerase (K1 lyase) encoded by orf34 of bacteriophage NTUH-K2044-K1-1, GenBank BAP15746, amino acids 1-651; Cloned into pET28a via NdeI and XhoI; This cloning would likely give an N-terminal His6 tag, but that is a surmise; also called K1 CPS depolymerase; polysaccharide depolymerase (PDP); source: E. coli BL21 (DE3), purified (nickel-chelating Sepharose, Superdex-200 gel …)
  stoichiometry N: 3

Source: paper PMC8822698, “Structural and biological insights into Klebsiella pneumoniae surface polysaccharide degradation by a bacteriophage K1 lyase: implications for clinical use” (Journal of Biomedical Science, 2022)
